Columns and labels:
[1] = target: T1, glycoprotein B (gB) of HSV-1 strain F on infected Vero cells (Herpes simplex virus type 1, strain F, UniProt P06436 30-903); test: flow cytometry on HSV-1 F infected Vero cells
T1 construct: whole, on cells; also called HSV-1 F; Wild-type strain F

[2] = target: T1, glycoprotein B (gB) of HSV-1 strain F …; test: flow cytometry, equilibrium binding to gB on HSV-1 F infected Vero cells, KD from nonlinear regression fit
[3] = target: T1, glycoprotein B (gB) of HSV-1 strain F …; test: flow cytometry on HSV-infected Vero cells (FIG. 5)
[4] = target: T1, glycoprotein B (gB) of HSV-1 strain F …; test: cell-based or functional assay
[5] = target: T2, glycoprotein B (gB) of HSV-2 strain G on infected Vero cells (Herpes simplex virus type 2, strain G); test: flow cytometry on HSV-2 G infected Vero cells
T2 construct: whole, on cells; also called HSV-2 G

[6] = target: T2, glycoprotein B (gB) of HSV-2 strain G …; test: flow cytometry, equilibrium binding curves on HSV-2 G infected Vero cells
[7] = target: T3, duotope 179YSQFMG184-βA-300FYGYRE305; test: peptide and duotope microarray on glass slides, mAb 2c, fluorescence laser scan, signal intensity (LU)
T3 construct: also called YSQFMG-βA-FYGYRE

[8] = target: T4, duotope 186FED188-βA-βA-300FYGYRE305; test: as above
T4 construct: also called FED-βA-βA-FYGYRE

[9] = target: designed 12-mer peptide PFYGYRE-G-FEDF; test: cellulose-bound peptides probed with MAb 2c, chemiluminescence
[10] = target: T5, truncated HSV-1 glycoprotein B gB(436-642) (Herpes simplex virus type 1, strain 17+, UniProt P10211 436-642); test: indirect immunofluorescence on transfected COS-1 cells
T5 construct: range 436-642

[11] = target: T6, truncated HSV-1 glycoprotein B gB(1-223) (Herpes simplex virus type 1, strain 17+, UniProt P10211 31-223); test: as above
T6 construct: range 31-223

[12] = target: T7, truncated HSV-1 glycoprotein B gB(1-130) (Herpes simplex virus type 1, strain 17+, UniProt P10211 31-130); test: as above
T7 construct: range 31-130

[13] = target: T1, glycoprotein B (gB) of HSV-1 strain F …; test: flow cytometry competition on HSV-1 infected Vero cells against 100 nM mAb 2c
[14] = target: T1, glycoprotein B (gB) of HSV-1 strain F …; test: cell-based or functional assay; remark: listed apart in the source

Row | Binder | EC50 (read off the curve) [1] [nM] | Kd [2] [nM] | concentration [nM] required for 50% neutralization of 100 TCID50 [4] [nM] | concentration [nM] required for 100% neutralization of 100 TCID50 [4] [nM] | also measured
1 | humanized mAb h2c-V2 (antibody, V domains shown, also called hu2c-V2) VH: QVTLKESGPALVKPTQTLTLTCTFSGFSLSTSGMSVGWIRQPPGKALEWLAHIWWNNDKYYKPALKSRLTISKDTSKKQVVLTMTNMDPVDTATYYCARIYYGYRPYAMDYWGQGTLVTVSS VL: DIVMTQTPLSLPVTPGEPASISCRSSQSIVHSNGNTYLEWYLQKPGQSPQLLIYKVSNRFSGVPDRFSGSGSGTDFTLKISRVEAEDVGVYYCFQGSHVPWSFGQGTKVEIKR | ~20 | 21.4 | 5.1 | 15.6 | fold lower affinity in comparison to mAb 2c [3]: 2 fold
2 | 2c-F(ab′)2 (other, also called F(ab′)-2-fragment; F(ab)2-fragment of mAb 2c) VH: QVTLKESGPGILLPSQTLSLTCSFSGFSLSTSGMSVGWIRQPSGKGLEWLGHIWWNNDKYYKPALKSRLTISKDTSNKQVFLKIASVVTADTATYYCARIYYGYRPYAMDYWGQGTSVTVSS VL: DVLMTQTPLSLPVSLGDQASISCRSSQSIVHSNGNTYLEWYLQKPGQSPKLLIYKVSNRFSGVPDRFSGSGSGTDFTLKISRVEAEDLGVYYCFQGSHVPWSFGGGTKLEIKR | – | – | – | – | EC50 (read off the curve) [5]: ~8 nM; Kd [6]: 8.8 nM
3 | 2c-Fab (Fab, V domains shown, also called Fab-fragment of mAb 2c; monovalent 2c-Fab fragment) VH: QVTLKESGPGILLPSQTLSLTCSFSGFSLSTSGMSVGWIRQPSGKGLEWLGHIWWNNDKYYKPALKSRLTISKDTSNKQVFLKIASVVTADTATYYCARIYYGYRPYAMDYWGQGTSVTVSS VL: DVLMTQTPLSLPVSLGDQASISCRSSQSIVHSNGNTYLEWYLQKPGQSPKLLIYKVSNRFSGVPDRFSGSGSGTDFTLKISRVEAEDLGVYYCFQGSHVPWSFGGGTKLEIKR | – | – | – | – | EC50 (read off the curve) [5]: ~20 nM; Kd [6]: 17.7 nM
4 | murine monoclonal antibody (mAb) 2c (antibody, V domains shown, also called 2c IgG; 2c-IgG) VH: QVTLKESGPGILLPSQTLSLTCSFSGFSLSTSGMSVGWIRQPSGKGLEWLGHIWWNNDKYYKPALKSRLTISKDTSNKQVFLKIASVVTADTATYYCARIYYGYRPYAMDYWGQGTSVTVSS VL: DVLMTQTPLSLPVSLGDQASISCRSSQSIVHSNGNTYLEWYLQKPGQSPKLLIYKVSNRFSGVPDRFSGSGSGTDFTLKISRVEAEDLGVYYCFQGSHVPWSFGGGTKLEIKR | – | – | – | – | binding result [7]: binds; binding result [8]: binds; binding result [9]: binds; binding result [10]: no binding; binding result [11]: no binding; binding result [12]: no binding
5 | humanized mAb h2c-V3 (antibody, V domains shown, also called hu2c-V3) VH: QVTLKESGPALVKPTQTLTLTCTFSGFSLSTSGMSVGWIRQPPGKALEWLAHIWWNNDKYYKPALKSRLTISKDTSKKQVFLTMTNMDPVDTATYYCARIYYGYRPYAMDYWGQGTLVTVSS VL: DIVMTQTPLSLPVTPGEPASISCRSSQSIVHSNGNTYLEWYLQKPGQSPQLLIYKVSNRFSGVPDRFSGSGSGTDFTLKISRVEAEDVGVYYCFQGSHVPWSFGQGTKVEIKR | ~10 | 11.4 | 3.3 | 7.8 | IC50 (read off the curve) [13]: ~100 nM
6 | humanized mAb h2c-V4 (antibody, V domains shown, also called hu2c-V4) VH: QVTLKESGPALVKPTQTLTLTCTFSGFSLSTSGMSVGWIRQPPGKALEWLAHIWWNNDKYYKPALKSRLTISKDTSKKQVFLTMTNMDPVDTATYYCARIYYGYRPYAMDYWGQGTLVTVSS VL: DVVMTQTPLSLPVTPGEPASISCRSSQSIVHSNGNTYLEWYLQKPGQSPQLLIYKVSNRFSGVPDRFSGSGSGTDFTLKISRVEAEDVGVYYCFQGSHVPWSFGQGTKVEIKR | ~10 | 13.7 | 3.7 | 7.8 | –
7 | humanized mAb h2c-V1 (antibody, V domains shown, also called hu2c-V1; mAb hu2c-V1) VH: QVTLKESGPALVKPTQTLTLTCTFSGFSLSTSGMSVGWIRQPPGKALEWLAHIWWNNDKYYKPALKSRLTISKDTSKNQVVLTMTNMDPVDTATYYCARIYYGYRPYAMDYWGQGTLVTVSS VL: DIVMTQTPLSLPVTPGEPASISCRSSQSIVHSNGNTYLEWYLQKPGQSPQLLIYKVSNRFSGVPDRFSGSGSGTDFTLKISRVEAEDVGVYYCFQGSHVPWSFGQGTKVEIKR | ~10 | 12.8 | 3.7 | 7.8 | inhibition of HSV-1 F cell-to-cell spread in Vero cell monolayers [14]: 500 nM

Source: patent US20130058952A1 (UNIVERSIT T DUISBERG ESSEN, published 2013)
